Experimental data as given in patent US20190202912A1 (NEXTCURE, published 2019).

Tests used:
mS15 = target: T1, mS15 (Mus musculus); experiment: flow cytometry titration, 293T cells transfected with mouse Siglec-15 (293T.mS15)
T1 construct: full length, cell surface; also called mouse Siglec-15
Experimental: […] Cells were incubated at 4 degrees C. for 30 minutes, then washed twice with excess FACS buffer. Cells were resuspended in 100 ul FACS buffer and 0.005 ug of anti-mouse IgG-PE secondary antibody was added to samples, incubated for 30 minutes and washed twice with excess FACS buffer. Cells were fixed in fixation buffer (2% formaldehyde in PBS) and subsequently analyzed by flow cytometry.

[1] = target: T2, S15-extra cellular domain (ECD) monomer (human, UniProt Q6ZMC9 20-263); experiment: BLI (Octet RED96), mAb on anti-human Fc sensors, S15-ECD monomer in solution, global fit
T2 construct: also called S15 monomer protein
T2 sequence: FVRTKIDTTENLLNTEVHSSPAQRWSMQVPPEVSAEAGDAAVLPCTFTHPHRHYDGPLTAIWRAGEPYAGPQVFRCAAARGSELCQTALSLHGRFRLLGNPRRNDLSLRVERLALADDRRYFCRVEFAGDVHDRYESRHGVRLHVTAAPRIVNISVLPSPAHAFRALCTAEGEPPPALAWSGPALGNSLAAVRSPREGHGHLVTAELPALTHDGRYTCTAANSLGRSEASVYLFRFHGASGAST
Experimental: Optimized KD experiments were performed on a ForteBio Octet RED96 instrument using anti-human Fc capture (AHC, 18-5060; ForteBio) sensors. Assay buffer was PBS containing 0.05% Tween-20 and regeneration buffer was 10 mM glycine (pH 1.5). First the antibodies were loaded at 1 μg/mL for 600 seconds. This was followed by a 60 second baseline step, a 300 second association step in S15-extra cellular domain (ECD) monomer, and finally a 1200 second dissociation step. The monomer concentrations ranged from 100 nM to 1.56 nM in a two-fold dilution series and a blank well was included. Data was processed using ForteBio's Data Analysis Software 7.0; a global fit was used, along with reference well subtraction. Reported values are the average of at least three independent octet runs.

hS15 = target: T3, hS15 (Homo sapiens, UniProt Q6ZMC9); experiment: flow cytometry, live 293T.hS15 cells, 1 µg mAb/1E05 cells/100 µL, PE secondary
T3 construct: full length, cell surface; also called human Siglec-15; huS15
T3 sequence (membrane protein on cells, looked up): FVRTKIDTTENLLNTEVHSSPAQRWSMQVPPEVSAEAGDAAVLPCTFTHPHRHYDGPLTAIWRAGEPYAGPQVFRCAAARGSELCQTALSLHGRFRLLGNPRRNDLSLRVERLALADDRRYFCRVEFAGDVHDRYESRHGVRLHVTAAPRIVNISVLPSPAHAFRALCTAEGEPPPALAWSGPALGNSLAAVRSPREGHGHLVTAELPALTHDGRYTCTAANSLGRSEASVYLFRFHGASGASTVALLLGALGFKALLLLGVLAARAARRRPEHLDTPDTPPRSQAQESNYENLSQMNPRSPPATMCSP
Experimental: Cells were sorted to establish human S15 and mouse S15 stable cell lines. […] 1E05 cells in 100 μL FACS buffer were aliquoted to separate tubes and 1 μg of purified mAb was added. Cells were incubated at 4 degrees C. for 30 minutes, then washed twice with excess FACS buffer. Cells were resuspended in 100 μL FACS buffer and 0.005 μg of anti-mouse IgG-PE secondary antibody was added to samples, incubated for 30 minutes and washed twice with excess FACS buffer. Cells were fixed in fixation buffer and subsequently analyzed by flow cytometry.

B1: 5G12 (antibody, V domains shown)
VH: QVQLQQPGAELVKPGASVKMSCKASGYTFTSYWITWVIQRPGQGLEWIGDIYCGSDTMHYNEKFKNKATLTVDTSSSTAYMQLSSLTSEDSAVYYCARWWDYGSSYDYFDYWGQGTTLTVSS
VL: DIKMTQSPSSMYASLGERVTITCKASQDINSYLSWFQQKPGKSPKTLIYRANRLVDGVPSRFSGSGSGQDYSLTISSLEYEDMGIYYCLQYDEFPYTFGGGTKLEIKR
notes: Mouse anti-human Siglec-15 mAb
B1 was tested, and the “EC50 (read off the curve)” value (mS15) was ~0.05 µg/mL, the Kd [1] was 0.3 nM and the koff [1] was 0.000123 s⁻¹. For the same binder, the kon [1] was 421000 M⁻¹ s⁻¹.

B2: 1H3 (antibody, V domains shown)
VH: QVQLKESGPGLVAPSQSLSITCTVSGFSLSNYGVHWVRQPPGKGLEWLVLIWSDGSTTYNSALKSRLSISKDNSKSQVFLKMNSLQTGDTAMYYCARHPYDDYSGYYYTMDYWGQGTSVTVSS
VL: DIQMTQASSSLSVSLGGRVTITCKASDHINNWLAWYQQKPGNAPRLLISGATSLETGVPSRFSGSGSGKDYTLSITSLQTEDVATYYCQQYWSSPLTFGAGTKLELK
notes: as for B1
B2 was tested, and the “EC50 (read off the curve)” value (mS15) was ~0.05 µg/mL, the Kd [1] was 0.11 nM and the koff [1] was 3.9e-05 s⁻¹. For the same binder, the kon [1] was 359000 M⁻¹ s⁻¹.

B3: NC63 (antibody, V domains shown)
VH: QVQLQQSGAELARPGASVKLSCKASGYTFTSYGISWVKQRTGQGLEWIGQIYPRSDNTYYNERFKGKATLTADKSSSTAYMALRSLTSEDSAVYFCAREGGPDYWGQGTTLTVSS
VL: not shown
notes: mouse anti-human Siglec-15 mAb; also called 63A
B3: binds (hS15).

B4: NC28 (antibody, V domains shown)
VH: QVQLQQSGAELARPGASVKLSCKASGYTFISYGITWVKQRTGQGLEWIGEIHPRSGNTYYNENFKDRASLTADKSSSTAYMEVRSLTSEDSAVYFCARGGPGDYWGQGTTLTVSS
VL: not shown
notes: mouse anti-human Siglec-15 mAb; also called 28A
B4: binds (hS15).

B5: 9A5 (antibody, V domains shown)
VH: HVQLQQSGAELARPGASVKLSCKASGYTFTSYGLIWVKQRTGQGLEWIGEIYPRSGNTYYNEKFKGKATLTADISSSTAYMELRSLTSEDSAVYFCASSSPHGDYWGQGTTLTVSS
VL: not shown
B5: binds (hS15).
